Results: PMC3970758, “A conserved MCM single-stranded DNA binding element is essential for replication initiation”
One block for each molecule: values may come before it.

Columns and labels:
[1] = molecular target: Pyrococcus furiosus MCM N-terminal domain (PfMCM 1-256) (Pyrococcus furiosus) (UniProt Q8U3I4); assay: crystal structure; PfMCMN without DNA; sitting drop, 18°C, 0.2 M sodium malonate pH 7.0, 20% PEG 3350; 2.65 Å; one hexamer in the asymmetric unit
[2] = molecular target: Pyrococcus furiosus MCM N-terminal domain (PfMCM 1-256) (Pyrococcus furiosus) (UniProt Q8U3I4); assay: crystal structure; PfMCMN with 30-mer poly-dT ssDNA; hanging drop, 18°C, 50 mM MES pH 6.0, 10 mM Mg(OAc)2, 28.5% PEG 3350; 3.2 Å; two hexamers in the asymmetric unit
PfMCMN WT [3] = molecular target: T1, PfMCMN WT (Pyrococcus furiosus, UniProt Q8U3I4 1-256); assay: crystal structure (3.2 A); 10 mM Mg(OAc)2 in well solution; Zn-binding subdomain; EMSA: 20 mM HEPES pH 7.6, 200 mM NaCl, 5 mM MgCl2, 5 mM bME, 25 C, 30 min, 160 nM DNA; 4-20% TBE PAGE; details: protein: recombinant; tags: His6-SUMO removed by Ulp1; in-frame BamHI site may leave extra N-terminal residues
T1 sequence: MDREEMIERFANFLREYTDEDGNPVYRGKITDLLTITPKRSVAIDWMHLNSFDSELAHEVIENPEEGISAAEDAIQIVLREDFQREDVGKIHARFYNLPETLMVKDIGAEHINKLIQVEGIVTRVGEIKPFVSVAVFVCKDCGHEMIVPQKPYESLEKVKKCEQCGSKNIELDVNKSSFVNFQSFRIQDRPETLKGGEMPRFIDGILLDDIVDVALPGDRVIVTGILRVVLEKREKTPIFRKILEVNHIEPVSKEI

PfMCMN WT [4] = molecular target: T1, PfMCMN WT; assay: EMSA; 5 mM Mg2+; EMSA: 20 mM HEPES pH 7.6, 200 mM NaCl, 5 mM MgCl2, 5 mM bME, 25 C, 30 min, 160 nM DNA; 4-20% TBE PAGE; details: protein: recombinant, tags: His6-SUMO removed by Ulp1, in-frame BamHI site may leave extra N-terminal residues

- stoichiometry N [1]: 6
- stoichiometry N [2]: 6
Molecule: Pyrococcus furiosus MCM N-terminal domain (PfMCM 1-256) (from UniProt Q8U3I4 1-256) (domain or fragment)

B1: poly-dT 30-mer (ssDNA)
DNA: TTTTTTTTTTTTTTTTTTTTTTTTTTTTTT
- binding result (PfMCMN WT [3]): binds

B2: 26-mer dsDNA (dsDNA)
DNA 1: ATGGCAGATCTCAATTGGATATCGGC
DNA 2: GCCGATATCCAATTGAGATCTGCCAT
- apparent K (half saturation) (PfMCMN WT [4]; label: 5'-fluorescein on strand 1, blunt): 7 µM

B3: T40 ssDNA (ssDNA)
DNA: TTTTTTTTTTTTTTTTTTTTTTTTTTTTTTTTTTTTTTTT
- apparent K (half saturation) (PfMCMN WT [4]; label: 5'-fluorescein): 6.8 µM
